Numbering of substitutions follows the chain as printed. Names and notes keep the numbering of the source. Blank lines part the entries; values can stand above or below the binder they belong to.
Key:
[1] = target: T1, Human CLEC12A-His (recombinant, K244 WT) (human, UniProt Q5QGZ9 65-265); assay: SPR, two-state fit (ka1); control sample
T1 construct: Made in house (Dragonfly Tx); also called hCLEC12A; hCLEC12A-His; not shown: His tag
T1 sequence: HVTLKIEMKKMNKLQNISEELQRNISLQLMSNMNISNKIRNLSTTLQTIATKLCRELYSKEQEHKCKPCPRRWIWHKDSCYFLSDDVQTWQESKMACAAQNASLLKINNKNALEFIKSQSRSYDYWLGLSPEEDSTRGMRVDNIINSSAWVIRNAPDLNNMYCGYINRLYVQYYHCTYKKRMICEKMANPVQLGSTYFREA

[2] = target: T1, Human CLEC12A-His (recombinant, K244 WT); assay: SPR, two-state fit (kd1); control sample
[3] = target: T1, Human CLEC12A-His (recombinant, K244 WT); assay: SPR 37C, two-state fit (ka1), average
[4] = target: T2, De-sialylated human CLEC12A (human, UniProt Q5QGZ9 65-265, treated with neuraminidase (terminal sialic acids removed)); assay: SPR, two-state fit (kd1)
T2 construct: Same recombinant antigen as m2 after neuraminidase; also called De-sialylated CLEC12A
T2 sequence: T1 sequence

[5] = target: T3, De-glycosylated human CLEC12A (human, UniProt Q5QGZ9 65-265, treated with PNGaseF (N-linked glycans removed)); assay: SPR, two-state fit (kd1)
T3 construct: Same recombinant antigen as m2 after PNGaseF; also called De-glycosylated CLEC12A
T3 sequence: T1 sequence

[6] = target: T1, Human CLEC12A-His (recombinant, K244 WT); assay: SPR, two-state fit; after 4 wks 40C in CST pH 7.0
[7] = target: T4, mFc-hNKG2D (recombinant mFc-tagged human NKG2D dimer) (human, UniProt P26718 73-216); assay: SPR 37C, steady state fit, average
T4 construct: extracellular domain; Made in house; not shown: mouse Fc tag
T4 sequence (looked up): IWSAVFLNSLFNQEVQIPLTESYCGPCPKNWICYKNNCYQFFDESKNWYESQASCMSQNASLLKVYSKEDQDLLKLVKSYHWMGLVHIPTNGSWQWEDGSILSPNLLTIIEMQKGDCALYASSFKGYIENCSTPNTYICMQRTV

[8] = target: T5, Human CD32a R131 (FcγRIIa R131) (human, UniProt P12318 36-218, limits assumed, biotinylated); assay: SPR 25C, average
T5 construct: Bought recombinant receptor; also called hFcγRIIa R131; FcgRIIa R131
T5 sequence (looked up): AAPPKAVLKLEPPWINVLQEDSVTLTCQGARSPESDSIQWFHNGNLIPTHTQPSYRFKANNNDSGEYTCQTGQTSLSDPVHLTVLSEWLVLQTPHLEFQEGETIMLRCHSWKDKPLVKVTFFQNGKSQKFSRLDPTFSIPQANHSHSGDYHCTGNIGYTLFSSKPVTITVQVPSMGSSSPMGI

[9] = target: T6, Human CD32a H131 (FcγRIIa H131) (human, UniProt P12318 36-218, limits assumed, biotinylated); assay: SPR 25C, average
T6 construct: Bought recombinant receptor; also called hFcγRIIa H131; FcgRIIa H131
T6 sequence (looked up): T5 sequence (looked up) with R132H

[10] = target: T7, Human CD32b (human, UniProt P31994 46-217, limits assumed, biotinylated); assay: SPR, steady state fit; average for AB0192
T7 construct: Bought recombinant receptor; also called hFcγRIIb
T7 sequence (looked up): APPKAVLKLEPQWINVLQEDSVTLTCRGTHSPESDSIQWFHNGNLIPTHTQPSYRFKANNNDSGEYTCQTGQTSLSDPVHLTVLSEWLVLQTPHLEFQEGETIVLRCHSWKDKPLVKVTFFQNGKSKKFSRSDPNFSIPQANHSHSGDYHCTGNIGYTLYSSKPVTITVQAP

[11] = target: T8, human CLEC12A on cells (HL60, PL21, Ba/F3-hCLEC12A) (human, UniProt Q5QGZ9 1-265); assay: flow cytometry, PL21 cells
T8 construct: Endogenous on the AML lines HL60 and PL21; brought into mouse Ba/F3 cells by retroviral transduction; The cell line stands under assay; also called CLL-1
T8 sequence: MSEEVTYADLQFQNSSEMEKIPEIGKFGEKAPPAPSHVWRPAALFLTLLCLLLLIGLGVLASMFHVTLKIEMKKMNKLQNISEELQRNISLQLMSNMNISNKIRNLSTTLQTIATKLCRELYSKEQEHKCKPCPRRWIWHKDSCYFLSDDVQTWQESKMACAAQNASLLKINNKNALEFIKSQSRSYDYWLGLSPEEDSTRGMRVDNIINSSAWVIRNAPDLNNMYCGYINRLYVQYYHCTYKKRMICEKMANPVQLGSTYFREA

[12] = target: T9, Cynomolgus FcRn (cynomolgus monkey, UniProt Q8SPV9 24-297; Q8SPW0 21-119); assay: SPR, steady state fit; average for AB0192
T9 construct: Bought recombinant receptor; also called cFcRn; Cyno FcRn
T9 sequence (Q8SPV9 24-297 limits assumed, chain 1 of 2): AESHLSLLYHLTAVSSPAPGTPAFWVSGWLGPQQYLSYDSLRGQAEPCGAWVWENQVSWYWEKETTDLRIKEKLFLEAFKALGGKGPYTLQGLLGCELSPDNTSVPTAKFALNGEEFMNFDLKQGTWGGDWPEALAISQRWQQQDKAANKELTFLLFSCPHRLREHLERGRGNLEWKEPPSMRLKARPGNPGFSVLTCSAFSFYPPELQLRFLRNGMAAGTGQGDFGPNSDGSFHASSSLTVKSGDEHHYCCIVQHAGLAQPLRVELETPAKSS
T9 sequence (Q8SPW0 21-119 limits assumed, chain 2 of 2): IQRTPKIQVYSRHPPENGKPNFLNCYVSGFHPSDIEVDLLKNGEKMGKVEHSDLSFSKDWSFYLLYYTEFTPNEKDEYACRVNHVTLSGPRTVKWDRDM

[13] = target: T10, Human FcRn (human, UniProt P55899 24-297; P61769 21-119); assay: SPR, steady state fit; average for AB0192
T10 construct: Bought recombinant receptor; also called hFcRn

[14] = target: T11, human CLEC12A expressed on cells (human, UniProt Q5QGZ9 1-265); assay: flow cytometry, HL-60
T11 construct: Transduced isogenic cells or endogenous expression on AML cells; also called RMA-hCLEC12A; Ba/F3-hCLEC12A
T11 sequence: T8 sequence

[15] = target: T12, recombinant cynomolgus FcRn (cynomolgus monkey, UniProt Q8SPV9 24-297; Q8SPW0 21-119); assay: SPR 25C, pH 6.0, steady state; pH 6.0; first replicate
T12 construct: also called cFcRn; cyno FcRn
T12 sequence (Q8SPV9 24-297 limits assumed, chain 1 of 2): as the sequence (Q8SPV9 24-297 limits assumed, chain 1 of 2) above
T12 sequence (Q8SPW0 21-119 limits assumed, chain 2 of 2): as the sequence (Q8SPW0 21-119 limits assumed, chain 2 of 2) above

[16] = target: T11, human CLEC12A expressed on cells; assay: flow cytometry, HL60

kon [1]: 1.04e+07 M⁻¹ s⁻¹ | koff [2]: 0.042 s⁻¹ | kon [3]: 1.04e+07 M⁻¹ s⁻¹ | koff [4]: 0.0329 s⁻¹ | koff [5]: 0.00633 s⁻¹ | Kd [6]: 1 nM | Kd [7]: 884 nM | Kd [8]: 1250 nM | Kd [9]: 900 nM
B1: AB0089 TriNKET (bispecific antibody, human IgG1, kappa)
chain: QLQLQESGPGLVKPSETLSLTCTVSGFSLTNYGLHWIRQPPGKCLEWIGVIWVGGATDYNPSLKSRVTISVDTSKNQFSLKLSSVQAADTAVYYCAKGDYGDTLDYWGQGTLVTVSSGGGGSGGGGSGGGGSGGGGSDIQMTQSPSSLSASVGDRVTITCHASQNINFWLSWYQQKPGKAPKLLIYEASNLHTGVPSRFSGSGSGTDFTLTISSLQPEDFATYYCQQSHSYPLTFGCGTKLEIKGSDKTHTCPPCPAPELLGGPSVFLFPPKPKDTLMISRTPEVTCVVVDVSHEDPEVKFNWYVDGVEVHNAKTKPREEQYNSTYRVVSVLTVLHQDWLNGKEYKCKVSNKALPAPIEKTISKAKGQPREPRVYTLPPCRDELTKNQVSLTCLVKGFYPSDIAVEWESNGQPENNYKTTPPVLVSDGSFTLYSKLTVDKSRWQQGNVFSCSVMHEALHNHYTQKSLSLSPG
heavy: EVQLVESGGGLVKPGGSLRLSCAASGFTFSSYSMNWVRQAPGKGLEWVSSISSSSSYIYYADSVKGRFTISRDNAKNSLYLQMNSLRAEDTAVYYCARGAPIGAAAGWFDPWGQGTLVTVSSASTKGPSVFPLAPSSKSTSGGTAALGCLVKDYFPEPVTVSWNSGALTSGVHTFPAVLQSSGLYSLSSVVTVPSSSLGTQTYICNVNHKPSNTKVDKKVEPKSCDKTHTCPPCPAPELLGGPSVFLFPPKPKDTLMISRTPEVTCVVVDVSHEDPEVKFNWYVDGVEVHNAKTKPREEQYNSTYRVVSVLTVLHQDWLNGKEYKCKVSNKALPAPIEKTISKAKGQPREPQVCTLPPSRDELTENQVSLTCLVKGFYPSDIAVEWESNGQPENNYKTTPPVLDSDGSFFLYSWLTVDKSRWQQGNVFSCSVMHEALHNHYTQKSLSLSPG
light: DIQMTQSPSSVSASVGDRVTITCRASQGISSWLAWYQQKPGKAPKLLIYAASSLQSGVPSRFSGSGSGTDFTLTISSLQPEDFATYYCQQGVSFPRTFGGGTKVEIKRTVAAPSVFIFPPSDEQLKSGTASVVCLLNNFYPREAKVQWKVDNALQSGNSQESVTEQDSKDSTYSLSSTLTLSKADYEKHKVYACEVTHQGLSSPVTKSFNRGEC
notes: F3' format heterodimer of three chains; human IgG1 Fc with EW-RVT and Y349C/S354C mutations; also called AB0089 Lot AB0089-002; CLEC12A TriNKET AB0089

Kd [10]: 6.1 µM | EC50 [11]: 0.43 nM | Kd [12]: 1400 nM | Kd [13]: 1500 nM
B2: AB0192 TriNKET (other)
chain: EVQLVESGGGVVQPGGSLRLSCAASGFTFNAFGMHWVRQAPGKCLEWVAFISSGSTSIYYANTVKGRFTISRDNSKNTLYLQMNSLRAEDTAVYYCARDGYPTGGAMDYWGQGTSVTVSSGGGGSGGGGSGGGGSGGGGSDIQMTQSPSSLSASVGDRVTITCKASQDIYNYLSWFQQKPGKAPKPLIYRANILVSGVPSRFSGSGSGQDYTFTISSLQPEDIATYYCLQFDAFPFTFGCGTKLEIKGSDKTHTCPPCPAPELLGGPSVFLFPPKPKDTLMISRTPEVTCVVVDVSHEDPEVKFNWYVDGVEVHNAKTKPREEQYNSTYRVVSVLTVLHQDWLNGKEYKCKVSNKALPAPIEKTISKAKGQPREPRVYTLPPCRDELTKNQVSLTCLVKGFYPSDIAVEWESNGQPENNYKTTPPVLVSDGSFTLYSKLTVDKSRWQQGNVFSCSVMHEALHNHYTQKSLSLSPG
heavy: B1 heavy
light: B1 light
notes: the condition stands under assay; also called AB0192 Lot AB0192-005

fold lower EC50 than AB0010 [14]: ~2 fold | Kd [15]: 1100 nM | EC50 [16]: 2.2 nM
B3: F3'-1602 TriNKET (other)
chain: B1 chain with V53S, A56K, V71K, G98Y, G101D, T103S, D207R, F220I
heavy: B1 heavy
light: B1 light
notes: CLEC12A scFv-Fc, NKG2D A49MI Fab-Fc, human IgG1 Fc; also called AB0237

From patent US20220119534A1 (DRAGONFLY THERAPEUTICS, published 2022)
